Patent US20220119490A1 (Genentech, published 2022)

B1: EDAR extracellular domain (receptor, human, UniProt Q9UNE0 27-187, looked up)
chain: EYSNCGENEYYNQTTGLCQECPPCGPGEEPYLSCGYGTKDEDYGCVPCPAEKFSKGGYQICRRHKDCEGFFRATVLTPGDMENDAECGPCLPGYYMLENRPRNIYGMVCYSCLLAPPNTKECVGATSGASANFPGTSGSSTLSPFQHAHKELSGQGHLATA
notes: extracellular domain; Soluble query, streptavidin tetramer
B2: BTN3A3 extracellular domain (receptor)
chain: not shown
notes: as for B1
B3: FLRT2 (receptor, human, UniProt O43155 36-541, looked up)
soluble query ectodomain: CPSVCRCDRNFVYCNERSLTSVPLGIPEGVTVLYLHNNQINNAGFPAELHNVQSVHTVYLYGNQLDEFPMNLPKNVRVLHLQENNIQTISRAALAQLLKLEELHLDDNSISTVGVEDGAFREAISLKLLFLSKNHLSSVPVGLPVDLQELRVDENRIAVISDMAFQNLTSLERLIVDGNLLTNKGIAEGTFSHLTKLKEFSIVRNSLSHPPPDLPGTHLIRLYLQDNQINHIPLTAFSNLRKLERLDISNNQLRMLTQGVFDNLSNLKQLTARNNPWFCDCSIKWVTEWLKYIPSSLNVRGFMCQGPEQVRGMAVRELNMNLLSCPTTTPGLPLFTPAPSTASPTTQPPTLSIPNPSRSYTPPTPTTSKLPTIPDWDGRERVTPPISERIQLSIHFVNDTSIQVSWLSLFTVMAYKLTWVKMGHSLVGGIVQERIVSGEKQHLSLVNLEPRSTYRICLVPLDAFNYRAVEDTICSEATTHASYLNNGSNTASSHEQTTSHSMGSPF
modifications: biotinylated
notes: extracellular domain; also called soluble query
B4: SLITRK3 extracellular domain (receptor, human, UniProt O94933 29-654, looked up)
chain: TPIPLIEDSEEIDEPCFDPCYCEVKESLFHIHCDSKGFTNISQITEFWSRPFKLYLQRNSMRKLYTNSFLHLNNAVSINLGNNALQDIQTGAFNGLKILKRLYLHENKLDVFRNDTFLGLESLEYLQADYNVIKRIESGAFRNLSKLRVLILNDNLIPMLPTNLFKAVSLTHLDLRGNRLKVLFYRGMLDHIGRSLMELQLEENPWNCTCEIVQLKSWLERIPYTALVGDITCETPFHFHGKDLREIRKTELCPLLSDSEVEASLGIPHSSSSKENAWPTKPSSMLSSVHFTASSVEYKSSNKQPKPTKQPRTPRPPSTSQALYPGPNQPPIAPYQTRPPIPIICPTGCTCNLHINDLGLTVNCKERGFNNISELLPRPLNAKKLYLSSNLIQKIYRSDFWNFSSLDLLHLGNNRISYVQDGAFINLPNLKSLFLNGNDIEKLTPGMFRGLQSLHYLYFEFNVIREIQPAAFSLMPNLKLLFLNNNLLRTLPTDAFAGTSLARLNLRKNYFLYLPVAGVLEHLNAIVQIDLNENPWDCTCDLVPFKQWIETISSVSVVGDVLCRSPENLTHRDVRTIELEVLCPEMLHVAPAGESPAQPGDSHLIGAPTSASPYEFSPPGGPVPLS
notes: extracellular domain; Streptavidin tetramer in cell assay; ECD-Fc prey in the variant screen
B5: CD226 (receptor, human, UniProt Q15762 19-336, looked up)
cell-surface-expressed binding partner: EEVLWHTSVPFAENMSLECVYPSMGILTQVEWFKIGTQQDSIAIFSPTHGMVIRKPYAERVYFLNSTMASNNMTLFFRNASEDDVGYYSCSLYTYPQGTWQKVIQVVQSDSFEAAVPSNSHIVSEPGKNVTLTCQPQMTWPVQAVRWEKIQPRQIDLLTYCNLVHGRNFTSKFPRQIVSNCSHGRWSVIVIPDVTVSDSGLYRCYLQASAGENETFVMRLTVAEGKTDNQYTLFVAGGTVLLLLFVISITTIIVIFLNRRRRRERRDLFTESWDTQKAPNNYRSPISTSQPTNQSMDDTREDIYVNYPTFSRRPKTRV
notes: expressed on cells; also called CD226 expressed on cells
B6: LILRA5 extracellular domain (receptor)
chain: not shown
notes: as for B1
B7: BTN3A1 extracellular domain (receptor)
chain: not shown
notes: as for B1
B8: TIGIT (receptor, human, UniProt Q495A1 22-244, looked up)
cell-surface-expressed binding partner: MMTGTIETTGNISAEKGGSIILQCHLSSTTAQVTQVNWEQQDQLLAICNADLGWHISPSFKDRVAPGPGLGLTLQSLTVNDTGEYFCIYHTYPDGTYTGRIFLEVLESSVAEHGARFQIPLLGAMAATLVVICTAVIVVVALTRKKKALRIHSVEGDLRRKSAGQEEWSPSAPSPPGSCVQAEAAPAGLCGEQRGEDCAELHDYFNVLSYRSLGNCSFFTETG
notes: expressed on cells; also called TIGIT expressed on cells
B9: PVR (receptor, human, UniProt P15151 21-343, looked up)
soluble query ectodomain: WPPPGTGDVVVQAPTQVPGFLGDSVTLPCYLQVPNMEVTHVSQLTWARHGESGSMAVFHQTQGPSYSESKRLEFVAARLGAELRNASLRMFGLRVEDEGNYTCLFVTFPQGSRSVDIWLRVLAKPQNTAEVQKVQLTGEPVPMARCVSTGGRPPAQITWHSDLGGMPNTSQVPGFLSGTVTVTSLWILVPSSQVDGKNVTCKVEHESFEKPQLLTVNLTVYYPPEVSISGYDNNWYLGQNEATLTCDARSNPEPTGYNWSTTMGPLPPFAVAQGAQLLIRPVDKPINTTLICNVTNALGARQAELTVQVKEGPPSEHSGISRN
modifications: biotinylated
notes: extracellular domain; also called poliovirus receptor; monomeric or tetrameric PVR ectodomain

Legend:
[1] = target: T1, LILRB1 expressed on cells (human, UniProt Q8NHL6 24-650); assay: cell surface interaction assay: ECD tetramer on transfected cells (FIG. 5N)
T1 construct: whole, on cells; C-terminally tagged in the co-IP; also called LILRB1-FLAG

[2] = target: T2, LRRC4B expressed on cells (human, UniProt Q9NT99 36-713); assay: cell surface interaction assay: streptavidin-tetramerized biotinylated ECD on transfected cells, immunofluorescence
T2 construct: whole, on cells; C-terminally tagged in the co-IP; also called NGL-3; LRRC4B-FLAG
T2 sequence (looked up): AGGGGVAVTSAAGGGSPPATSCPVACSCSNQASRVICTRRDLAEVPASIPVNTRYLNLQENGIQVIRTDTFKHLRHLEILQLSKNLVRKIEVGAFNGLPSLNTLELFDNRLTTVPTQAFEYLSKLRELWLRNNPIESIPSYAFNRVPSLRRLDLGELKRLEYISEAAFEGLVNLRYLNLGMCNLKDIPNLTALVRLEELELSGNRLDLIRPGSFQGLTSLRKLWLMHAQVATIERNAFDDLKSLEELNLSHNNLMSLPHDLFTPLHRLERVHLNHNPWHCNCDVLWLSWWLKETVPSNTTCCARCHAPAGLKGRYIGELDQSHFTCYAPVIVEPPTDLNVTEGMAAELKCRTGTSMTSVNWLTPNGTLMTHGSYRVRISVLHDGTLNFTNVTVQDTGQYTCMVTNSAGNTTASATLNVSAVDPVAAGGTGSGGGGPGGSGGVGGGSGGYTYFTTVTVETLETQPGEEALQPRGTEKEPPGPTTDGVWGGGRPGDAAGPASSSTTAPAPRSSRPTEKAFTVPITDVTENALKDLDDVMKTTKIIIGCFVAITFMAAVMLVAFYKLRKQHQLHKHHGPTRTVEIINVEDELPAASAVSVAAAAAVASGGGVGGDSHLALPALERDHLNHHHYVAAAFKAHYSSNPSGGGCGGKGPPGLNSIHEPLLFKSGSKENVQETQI

[3] = target: T3, UNC5A (human, UniProt Q6ZN44); assay: cell surface interaction assay: query ECD tetramerised with fluorescent streptavidin on transfected cells, immunofluorescence
T3 construct: expressed on cells; also called UNC5A expressed on cells
T3 sequence (cell-surface-expressed binding partner, looked up): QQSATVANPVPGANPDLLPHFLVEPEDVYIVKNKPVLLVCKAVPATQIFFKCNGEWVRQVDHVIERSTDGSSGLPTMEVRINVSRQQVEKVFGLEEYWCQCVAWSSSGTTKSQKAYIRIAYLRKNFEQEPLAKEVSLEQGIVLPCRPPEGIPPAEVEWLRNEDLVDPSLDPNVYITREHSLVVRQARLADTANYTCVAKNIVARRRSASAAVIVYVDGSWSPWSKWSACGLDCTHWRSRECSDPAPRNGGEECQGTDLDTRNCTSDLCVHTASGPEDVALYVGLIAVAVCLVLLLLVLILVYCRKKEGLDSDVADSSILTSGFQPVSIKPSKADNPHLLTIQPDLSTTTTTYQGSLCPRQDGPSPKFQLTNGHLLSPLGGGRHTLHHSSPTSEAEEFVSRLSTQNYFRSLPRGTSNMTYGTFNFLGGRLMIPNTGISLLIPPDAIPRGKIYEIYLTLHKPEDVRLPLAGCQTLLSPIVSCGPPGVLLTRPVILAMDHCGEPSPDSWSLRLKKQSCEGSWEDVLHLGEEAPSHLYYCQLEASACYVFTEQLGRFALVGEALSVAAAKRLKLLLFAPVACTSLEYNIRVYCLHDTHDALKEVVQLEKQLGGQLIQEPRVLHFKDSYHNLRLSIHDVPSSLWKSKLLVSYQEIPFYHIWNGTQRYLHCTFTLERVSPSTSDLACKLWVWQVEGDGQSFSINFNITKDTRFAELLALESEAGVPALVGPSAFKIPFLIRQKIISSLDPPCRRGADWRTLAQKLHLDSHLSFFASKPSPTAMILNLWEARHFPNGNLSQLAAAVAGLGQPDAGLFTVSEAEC

[4] = target: T4, PTPRS expressed on cells (human, UniProt Q13332 30-1948); assay: cell surface interaction assay: streptavidin-tetramerized biotinylated ECD on transfected cells, immunofluorescence
T4 construct: whole, on cells; also called receptor-type tyrosine-protein phosphatase S

[5] = target: T5, PTPRD expressed on cells (human, UniProt P23468 21-1912); assay: as above
T5 construct: whole, on cells; also called receptor-type tyrosine-protein phosphatase delta

[6] = target: B9; assay: cell surface binding of monomeric or streptavidin-tetramerised PVR ectodomain to CD226-expressing cells, normalized fluorescence intensity
[7] = target: B9; assay: cell surface binding of monomeric or streptavidin-tetramerised PVR ectodomain to TIGIT-expressing cells, normalized fluorescence intensity
[8] = target: T6, CD96 (human, UniProt P40200); assay: cell surface binding of monomeric or streptavidin-tetramerised PVR ectodomain to CD96-expressing cells, normalized fluorescence intensity
T6 construct: expressed on cells; also called CD96 expressed on cells
T6 sequence (cell-surface-expressed binding partner, looked up): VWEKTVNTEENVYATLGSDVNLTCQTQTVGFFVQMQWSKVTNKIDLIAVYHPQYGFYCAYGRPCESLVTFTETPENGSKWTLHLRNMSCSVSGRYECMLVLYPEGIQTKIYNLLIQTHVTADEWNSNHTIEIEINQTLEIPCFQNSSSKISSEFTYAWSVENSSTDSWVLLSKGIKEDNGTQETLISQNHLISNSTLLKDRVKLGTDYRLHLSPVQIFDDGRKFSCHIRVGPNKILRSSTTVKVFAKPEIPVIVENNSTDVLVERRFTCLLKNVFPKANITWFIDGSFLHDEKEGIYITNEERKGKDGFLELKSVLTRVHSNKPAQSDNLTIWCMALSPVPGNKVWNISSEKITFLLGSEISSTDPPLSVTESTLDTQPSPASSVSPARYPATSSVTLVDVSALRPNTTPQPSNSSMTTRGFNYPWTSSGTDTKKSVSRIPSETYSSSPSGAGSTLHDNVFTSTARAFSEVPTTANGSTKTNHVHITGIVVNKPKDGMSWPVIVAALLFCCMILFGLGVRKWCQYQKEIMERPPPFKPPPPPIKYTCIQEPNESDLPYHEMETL

T1 sequence (Q8NHL6 24-650): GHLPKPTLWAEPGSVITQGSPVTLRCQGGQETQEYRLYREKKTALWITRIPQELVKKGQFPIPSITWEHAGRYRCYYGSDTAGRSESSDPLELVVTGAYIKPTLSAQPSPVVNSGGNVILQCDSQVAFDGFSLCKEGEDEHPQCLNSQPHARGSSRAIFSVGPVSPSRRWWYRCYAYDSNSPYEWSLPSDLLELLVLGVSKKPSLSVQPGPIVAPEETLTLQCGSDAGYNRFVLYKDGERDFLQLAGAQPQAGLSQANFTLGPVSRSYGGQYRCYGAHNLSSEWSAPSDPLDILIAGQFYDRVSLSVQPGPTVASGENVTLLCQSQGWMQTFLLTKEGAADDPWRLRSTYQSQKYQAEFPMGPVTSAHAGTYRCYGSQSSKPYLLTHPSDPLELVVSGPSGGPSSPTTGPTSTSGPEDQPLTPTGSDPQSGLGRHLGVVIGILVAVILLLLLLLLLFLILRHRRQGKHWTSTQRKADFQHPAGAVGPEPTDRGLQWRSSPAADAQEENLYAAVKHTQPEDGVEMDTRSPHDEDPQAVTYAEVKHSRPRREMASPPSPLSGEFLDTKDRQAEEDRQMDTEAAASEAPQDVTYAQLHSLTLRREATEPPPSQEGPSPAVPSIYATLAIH
T5 sequence (P23468 21-1912): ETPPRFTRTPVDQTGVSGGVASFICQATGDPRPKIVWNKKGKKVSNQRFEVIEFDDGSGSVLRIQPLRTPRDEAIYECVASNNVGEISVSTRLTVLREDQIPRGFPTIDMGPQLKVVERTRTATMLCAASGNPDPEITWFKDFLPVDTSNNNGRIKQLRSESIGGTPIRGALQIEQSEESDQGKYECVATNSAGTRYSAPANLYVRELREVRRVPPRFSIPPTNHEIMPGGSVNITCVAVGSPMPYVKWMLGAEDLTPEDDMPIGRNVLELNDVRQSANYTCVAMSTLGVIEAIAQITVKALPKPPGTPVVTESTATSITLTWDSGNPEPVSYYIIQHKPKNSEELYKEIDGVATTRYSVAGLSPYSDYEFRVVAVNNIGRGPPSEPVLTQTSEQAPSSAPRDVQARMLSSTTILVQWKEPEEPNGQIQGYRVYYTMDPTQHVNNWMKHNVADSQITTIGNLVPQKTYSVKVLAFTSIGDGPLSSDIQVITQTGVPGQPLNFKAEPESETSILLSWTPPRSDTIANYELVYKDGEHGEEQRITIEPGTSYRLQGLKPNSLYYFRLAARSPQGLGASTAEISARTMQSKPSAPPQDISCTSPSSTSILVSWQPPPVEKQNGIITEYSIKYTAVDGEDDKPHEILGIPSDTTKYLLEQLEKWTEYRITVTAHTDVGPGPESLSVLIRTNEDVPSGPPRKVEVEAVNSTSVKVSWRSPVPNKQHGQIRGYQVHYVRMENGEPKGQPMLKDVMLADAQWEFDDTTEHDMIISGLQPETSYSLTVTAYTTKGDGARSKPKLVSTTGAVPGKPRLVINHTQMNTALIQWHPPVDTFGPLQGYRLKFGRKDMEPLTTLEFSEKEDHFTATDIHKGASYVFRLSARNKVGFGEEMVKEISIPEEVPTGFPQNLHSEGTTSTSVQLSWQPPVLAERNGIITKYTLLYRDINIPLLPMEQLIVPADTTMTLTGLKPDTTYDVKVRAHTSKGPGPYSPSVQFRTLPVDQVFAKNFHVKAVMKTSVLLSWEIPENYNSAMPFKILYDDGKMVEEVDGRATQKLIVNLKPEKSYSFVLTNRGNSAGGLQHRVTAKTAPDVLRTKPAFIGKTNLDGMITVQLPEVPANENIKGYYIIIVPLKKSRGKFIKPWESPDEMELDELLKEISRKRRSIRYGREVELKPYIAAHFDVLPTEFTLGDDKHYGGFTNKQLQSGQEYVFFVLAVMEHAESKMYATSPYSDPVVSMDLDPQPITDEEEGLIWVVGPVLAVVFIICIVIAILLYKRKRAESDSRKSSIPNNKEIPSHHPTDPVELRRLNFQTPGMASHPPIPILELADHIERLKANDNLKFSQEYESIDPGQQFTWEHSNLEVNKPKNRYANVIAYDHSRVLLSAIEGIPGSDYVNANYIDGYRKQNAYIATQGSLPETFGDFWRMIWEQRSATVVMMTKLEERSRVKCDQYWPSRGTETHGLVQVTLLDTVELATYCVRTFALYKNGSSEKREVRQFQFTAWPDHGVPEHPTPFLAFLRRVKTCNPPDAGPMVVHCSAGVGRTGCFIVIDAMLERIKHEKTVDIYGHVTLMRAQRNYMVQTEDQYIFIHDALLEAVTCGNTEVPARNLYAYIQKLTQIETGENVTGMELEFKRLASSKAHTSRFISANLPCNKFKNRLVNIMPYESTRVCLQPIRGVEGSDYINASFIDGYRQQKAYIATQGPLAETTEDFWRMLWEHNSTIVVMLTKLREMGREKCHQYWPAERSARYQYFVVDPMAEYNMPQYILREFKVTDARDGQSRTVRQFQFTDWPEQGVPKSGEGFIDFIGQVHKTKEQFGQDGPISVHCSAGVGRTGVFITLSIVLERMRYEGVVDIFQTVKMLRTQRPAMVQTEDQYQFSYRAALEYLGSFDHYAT
T4 sequence (Q13332 30-1948): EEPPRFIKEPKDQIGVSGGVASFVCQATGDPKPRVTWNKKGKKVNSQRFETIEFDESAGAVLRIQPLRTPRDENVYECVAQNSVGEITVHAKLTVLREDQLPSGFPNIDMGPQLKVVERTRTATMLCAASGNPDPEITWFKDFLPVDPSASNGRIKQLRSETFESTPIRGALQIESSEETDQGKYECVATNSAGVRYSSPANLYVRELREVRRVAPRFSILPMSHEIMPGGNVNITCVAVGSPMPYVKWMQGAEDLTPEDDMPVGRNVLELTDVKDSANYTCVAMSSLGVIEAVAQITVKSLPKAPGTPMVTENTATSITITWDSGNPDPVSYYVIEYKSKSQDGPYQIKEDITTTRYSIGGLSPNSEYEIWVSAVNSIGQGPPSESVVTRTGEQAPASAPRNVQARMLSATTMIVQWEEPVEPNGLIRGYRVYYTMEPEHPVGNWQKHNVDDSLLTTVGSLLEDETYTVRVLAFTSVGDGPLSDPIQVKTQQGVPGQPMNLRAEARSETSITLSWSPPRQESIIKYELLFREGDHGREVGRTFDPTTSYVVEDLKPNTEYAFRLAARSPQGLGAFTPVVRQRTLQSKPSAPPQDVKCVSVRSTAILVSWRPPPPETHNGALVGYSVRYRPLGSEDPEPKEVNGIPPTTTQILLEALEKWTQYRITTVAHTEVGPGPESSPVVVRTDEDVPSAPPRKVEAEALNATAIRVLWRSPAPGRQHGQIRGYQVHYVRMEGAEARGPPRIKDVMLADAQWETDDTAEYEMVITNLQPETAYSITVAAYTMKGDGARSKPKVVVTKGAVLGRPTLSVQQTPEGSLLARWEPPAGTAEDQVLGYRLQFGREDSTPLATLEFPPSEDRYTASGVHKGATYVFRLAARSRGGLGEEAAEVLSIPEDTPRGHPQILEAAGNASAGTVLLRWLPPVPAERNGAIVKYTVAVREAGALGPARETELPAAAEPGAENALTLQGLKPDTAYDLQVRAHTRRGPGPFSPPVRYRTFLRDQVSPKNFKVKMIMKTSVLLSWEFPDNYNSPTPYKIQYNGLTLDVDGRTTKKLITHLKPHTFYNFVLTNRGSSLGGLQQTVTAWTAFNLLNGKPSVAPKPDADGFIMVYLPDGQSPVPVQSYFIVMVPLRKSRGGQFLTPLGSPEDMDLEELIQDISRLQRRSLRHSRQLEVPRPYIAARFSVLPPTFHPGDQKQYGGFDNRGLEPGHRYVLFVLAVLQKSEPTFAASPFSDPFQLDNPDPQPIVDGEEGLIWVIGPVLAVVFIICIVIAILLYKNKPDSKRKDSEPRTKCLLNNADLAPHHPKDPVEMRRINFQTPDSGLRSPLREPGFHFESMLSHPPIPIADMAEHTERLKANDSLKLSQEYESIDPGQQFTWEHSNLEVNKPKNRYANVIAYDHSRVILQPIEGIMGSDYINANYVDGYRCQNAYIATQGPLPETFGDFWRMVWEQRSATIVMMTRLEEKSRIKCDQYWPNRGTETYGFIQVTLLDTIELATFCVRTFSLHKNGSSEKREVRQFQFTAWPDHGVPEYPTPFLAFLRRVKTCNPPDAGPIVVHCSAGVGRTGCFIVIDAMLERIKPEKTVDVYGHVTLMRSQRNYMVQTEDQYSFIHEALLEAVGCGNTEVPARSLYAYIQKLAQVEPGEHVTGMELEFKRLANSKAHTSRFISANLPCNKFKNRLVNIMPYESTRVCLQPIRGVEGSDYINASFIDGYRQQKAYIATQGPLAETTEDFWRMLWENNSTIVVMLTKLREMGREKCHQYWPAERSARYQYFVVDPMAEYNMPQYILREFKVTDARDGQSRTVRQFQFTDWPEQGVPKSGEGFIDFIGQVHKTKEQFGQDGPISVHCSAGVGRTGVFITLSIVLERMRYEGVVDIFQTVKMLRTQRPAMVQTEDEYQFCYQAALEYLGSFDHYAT

## B1
[1]
  binding result: binds

## B2
[2]
  binding result: binds

## B3
[3]
  binding result: binds

## B4
[4]
  binding result: binds
[5]
  binding result: binds

## B5
[6]
  binding result: binds

## B6
[1]
  binding result: binds

## B7
[2]
  binding result: binds

## B8
[7]
  binding result: binds

## B9
[8]
  binding result: binds
